Laboratory results published in US20230250134A1 (University of Washington, published 2023).
Where no end group is shown, it is not given here.

Assays:
[1] = biological target: SARS-COV-2 Spike glycoprotein receptor binding domain (RBD) (SARS-CoV-2, UniProt P0DTC2 319-541)
[2] = biological target: SARS-COV-2 Spike glycoprotein (SARS-CoV-2, UniProt P0DTC2 14-1208); experiment: estimated Kd for Spike (avidity), Table 10

Binder | Kd [1] [nM] | Kd [2] [nM]
LCB3-2 (designed binder) NDDELLMLVTDLVAEALLFAKDEEIKKRVFTLFELADKAYKNNDRDTLSKVVSELKELLERLQ | 0.2 | 
LCB4-1 (designed binder) QREKRLKQLEMLLEYAIERNDPYLMFDVAVEMLRLAEENNDERIIERAKRILEEYE | 0.2 | 0.1
LCB1_v1.1-GS-LCB3_v1.2 (1GS3) (designed binder) DKENILQKIYEIMKTLDQLGHAEASMQVSDLIYEFMKQGDERLLEEAERLLEEVERGGGGSGGGGSGGGGSGGGGSGGGGSGGGGSGGGGSGGGGSGGGGSGGGGSGGGGSGGGGSGGGGSGGGGSGGGGSNDDELHMQMTDLVYEALHFAKDEEIQKHVFQLFEKATKAYKNKDRQKLEKVVEELKELLERLLS | 0.2 | 0.1
Mucin_LCB1_v1.1_Cys (designed binder) AKAKAKAKAKAKAKAKAKAKGGDKENILQKIYEIMKTLDQLGHAEASMQVSDLIYEFMKQGDERLLEEAERLLEEVERC | 0.2 | 0.1
AHB1-2 (designed binder) DEDLEELERLYRKAEEVAKEAEEASRRGDKERAKELLERALHLFDQVFELAQELQEKLTDEKRQKATHLDKAVHEAADELYQRVR | 0.2 | 
AHB2-2 (designed binder) ELEEQVMHVLDQVSELAHELLHKLTGEELERAAYFNWWATEMMLELIKSDDEREIREIEEEARRILEHLEELARK | 0.2 | 0.1
LCB1_v1.1-PRO-LCB1_v1.1 (1PRO1) (designed binder) DKENILQKIYEIMKTLDQLGHAEASMQVSDLIYEFMKQGDERLLEEAERLLEEVERAGSGGSGGSGGSPVPSTPPTPSPSTPPTPSPSPVPSTPPTPSPSTPPTPSPSPVPSTPPTPSPSTPPTPSPSASGDKENILQKIYEIMKTLDQLGHAEASMQVSDLIYEFMKQGDERLLEEAERLLEEVER | 0.2 | 0.1
AHB1-1 (designed binder) DEDLEELERLYRKAEEVAKEAKDASRRGDDERAKEQMERAMRLFDQVFELAQELQEKQTDGNRQKATHLDKAVKEAADELYQRVR | 0.2 | 
LCB4-2 (designed binder) DREERLKYLEMLLELAVERNDPYLIFDVAIELLRLAEENNDERIYERAKRILEEVE | 0.2 | 0.1
LCB1-4 (designed binder, also called LCB1_v1.1) DKENILQKIYEIMKTLDQLGHAEASMQVSDLIYEFMKQGDERLLEEAERLLEEVER | 0.2 | 0.1
LCB1-5 (designed binder) DKENILQKIYEIMKTLDQLGHAEASMNVSDLIYEFMKQGDERLLEEAERLLEEVER | 0.2 | 0.1
LCB1_v1.4 (designed binder) DKENILQKIYEIMKTLEQLGHAEASMQVSDLIYEFMKQGDENLLEEAEQLLQEVER | 0.2 | 0.1
LCB1_v1.5 (LCB1_v1.3 with N-link Glycosylation) (designed binder, also: N-linked glycosylation, site not given here) DKENILQKIYEIMKTLEQLGHAEASMNVSDLIYEFMKQGDERLLEEAERLLEEVER | 0.2 | 0.1
LCB1_v1.2 (designed binder) DKENILQKIYEIMKTLDQLGHAEASMYVSDLIYEFMKQGDERLLEEAERLLEEVER | 0.2 | 0.1
LCB3_v1.2-PRO-LCB3_v1.2 (3PRO3) (designed binder) NDDELHMQMTDLVYEALHFAKDEEIQKHVFQLFEKATKAYKNKDRQKLEKVVEELKELLERLLSAGSGGSGGSGGSPVPSTPPTPSPSTPPTPSPSPVPSTPPTPSPSTPPTPSPSPVPSTPPTPSPSTPPTPSPSASGNDDELHMQMTDLVYEALHFAKDEEIQKHVFQLFEKATKAYKNKDRQKLEKVVEELKELLERLLS | 0.2 | 0.1
LCB1-24GS-LCB1 (designed binder) DKEWILQKIYEIMRLLDELGHAEASMRVSDLIYEFMKKGDERLLEEAERLLEEVERGGGSGGGSSGGSGGSSGGGSGGGSDKEWILQKIYEIMRLLDELGHAEASMRVSDLIYEFMKKGDERLLEEAERLLEEVER | 0.2 | 
AHB2-1 (designed binder) ELEERVMHLLDQVSELAHELLHKLTGEELQRATHFDKWANEAILELIKSDDEREIREIEEEARRILEHLEELARK | 0.2 | 
LCB5-1 (designed binder) SLEELKEQVKELKKELSPEMRRLIEEALRFLEEGNPAMAMMVLSDLVYQLGDPRVIDLYMLVTKT | 0.2 | 
LCB1_v1.1-GSLCB1_v1.1 (1GS1) (designed binder) DKENILQKIYEIMKTLDQLGHAEASMQVSDLIYEFMKQGDERLLEEAERLLEEVERGGGGSGGGGSGGGGSGGGGSGGGGSGGGGSGGGGSGGGGSGGGGSGGGGSGGGGSGGGGSGGGGSGGGGSGGGGSDKENILQKIYEIMKTLDQLGHAEASMQVSDLIYEFMKQGDERLLEEAERLLEEVER | 0.2 | 0.1

Binder | Kd [1] [nM] | Kd [2] [nM]
LCB1-36GS-LCB1 (designed binder) DKEWILQKIYEIMRLLDELGHAEASMRVSDLIYEFMKKGDERLLEEAERLLEEVERGGGSGGGSGGSGGSGGGSGGGSGSGGSGGGGSGGGSDKEWILQKIYEIMRLLDELGHAEASMRVSDLIYEFMKKGDERLLEEAERLLEEVER | 0.2 | 
36175 (5_LCB1_linker14) (designed binder) DKEWILQKIYEIMRLLDELGHAEASMRVSDLIYEFMKKGDERLLEEAERLLEEVERGGSGSSGGSGSGSGDKEWILQKIYEIMRLLDELGHAEASMRVSDLIYEFMKKGDERLLEEAERLLEEVERGGSGSSGGSGSGSGDKEWILQKIYEIMRLLDELGHAEASMRVSDLIYEFMKKGDERLLEEAERLLEEVERGGSGSSGGSGSGSGDKEWILQKIYEIMRLLDELGHAEASMRVSDLIYEFMKKGDERLLEEAERLLEEVERGGSGSSGGSGSGSGDKEWILQKIYEIMRLLDELGHAEASMRVSDLIYEFMKKGDERLLEEAERLLEEVER | 0.2 | 0.1
LCB5-2 (designed binder) SLEEVKEILKELKKELSPEDRRLIEEALRLLEEGNPAMASMVLSDLVFLLGDPRVIELLMLVTKT | 0.2 | 
LCB8-1 (designed binder) PIIELLREAKEKNDEFAISDALYLVNELLQRTGDPRLEEVLYLIWRALKEKDPRLLDRAIELFER | 0.2 | 
LCB8-2 (designed binder) PVTELLREAKEKNDPMAISDALFLVFELAQRTGDPRLEEVLFLIWRALKEKDPRLLDRAIELFER | 0.2 | 
LCB1_v1.1_Cys (designed binder) DKENILQKIYEIMKTLDQLGHAEASMQVSDLIYEFMKQGDERLLEEAERLLEEVERC | 0.2 | 0.1
Mucin_LCB1_v1.3 (designed binder) AKAKAKAKAKAKAKAKAKAKGGDKENILQKIYEIMKTLEQLGHAEASMQVSDLIYEFMKQGDERLLEEAERLLEEVER | 0.2 | 
LCB3_v1.2 (designed binder, also called LCB3-3) NDDELHMQMTDLVYEALHFAKDEEIQKHVFQLFEKATKAYKNKDRQKLEKVVEELKELLERLLS | 0.2 | 
LCB3_v1.1 (designed binder) NDDELHMQMTDLVYEALHFAKDEEFQKHVFQLFEKATKAYKNNDRQKLEKVVEELKELLERLLS | 0.2 | 
LCB3-4 (designed binder) NDDELHMQMTDLVYEALHFAKDEEIQKHVFQLFENATKAYKNKDRQKLEKVVEELKELLERLLS | 0.2 | 
LCB3_v1.5 (designed binder) NDDELHMQMTDLVYEALHKAKDEEMQKRVFQLFEQADKAYKTKDRQKLEKVVEELKELLERLLS | 0.2 | 
LCB3_v1.3 (designed binder) NDDELHMQMTDLVYEALHFAKDEEFQKHVFQLFEKATKAYKNKDRQKLEKVVEELKELLERLLS | 0.2 | 
LCB3_v1.4 (designed binder) NDDELHMQMTDLVYEALHKAKDEEFQKHVFQLFEKATKARKNKDRQKLEKVVEELKELLERLLS | 0.2 | 
LCB7-1 (designed binder) DDDIRYLIYMAKLRLEQGNPEEAEKVLEMARFLAERLGMEELLKEVRELLRKIEELR | 0.2 | 0.1
LCB7-2 (designed binder) DDDVRYLIYMAKLLLEQGNPEEAEKVLESARFAAELLGNEELLKEVRELLRKIEELR | 0.2 | 0.1
LCB3_v1.2-GS3-LCB3_v1.2 (3GS3) (designed binder) NDDELHMQMTDLVYEALHFAKDEEIQKHVFQLFEKATKAYKNKDRQKLEKVVEELKELLERLLSGGGGSGGGGSGGGGSGGGGSGGGGSGGGGSGGGGSGGGGSGGGGSGGGGSGGGGSGGGGSGGGGSGGGGSGGGGSNDDELHMQMTDLVYEALHFAKDEEIQKHVFQLFEKATKAYKNKDRQKLEKVVEELKELLERLLS | 0.2 | 0.1
LCB2-1 (designed binder) SDDEDSVRYLLYMAELRYEQGNPEKAKKILEMAEFIAKRNNNEELERLVREVKKRL | 0.2 | 0.1
LCB2-2 (designed binder) SDDEDAVRYLLYMAELLYKQGNPEEAKKLLELAEFIAKRNNNEELERLVREVKKRL | 0.2 | 0.1
